Numbering of substitutions follows the chain as printed.
T1: human αvβ6 on 293F:huβ6 cells (human, UniProt P06756 31-1048; P18564 22-788)
T1 chain 1: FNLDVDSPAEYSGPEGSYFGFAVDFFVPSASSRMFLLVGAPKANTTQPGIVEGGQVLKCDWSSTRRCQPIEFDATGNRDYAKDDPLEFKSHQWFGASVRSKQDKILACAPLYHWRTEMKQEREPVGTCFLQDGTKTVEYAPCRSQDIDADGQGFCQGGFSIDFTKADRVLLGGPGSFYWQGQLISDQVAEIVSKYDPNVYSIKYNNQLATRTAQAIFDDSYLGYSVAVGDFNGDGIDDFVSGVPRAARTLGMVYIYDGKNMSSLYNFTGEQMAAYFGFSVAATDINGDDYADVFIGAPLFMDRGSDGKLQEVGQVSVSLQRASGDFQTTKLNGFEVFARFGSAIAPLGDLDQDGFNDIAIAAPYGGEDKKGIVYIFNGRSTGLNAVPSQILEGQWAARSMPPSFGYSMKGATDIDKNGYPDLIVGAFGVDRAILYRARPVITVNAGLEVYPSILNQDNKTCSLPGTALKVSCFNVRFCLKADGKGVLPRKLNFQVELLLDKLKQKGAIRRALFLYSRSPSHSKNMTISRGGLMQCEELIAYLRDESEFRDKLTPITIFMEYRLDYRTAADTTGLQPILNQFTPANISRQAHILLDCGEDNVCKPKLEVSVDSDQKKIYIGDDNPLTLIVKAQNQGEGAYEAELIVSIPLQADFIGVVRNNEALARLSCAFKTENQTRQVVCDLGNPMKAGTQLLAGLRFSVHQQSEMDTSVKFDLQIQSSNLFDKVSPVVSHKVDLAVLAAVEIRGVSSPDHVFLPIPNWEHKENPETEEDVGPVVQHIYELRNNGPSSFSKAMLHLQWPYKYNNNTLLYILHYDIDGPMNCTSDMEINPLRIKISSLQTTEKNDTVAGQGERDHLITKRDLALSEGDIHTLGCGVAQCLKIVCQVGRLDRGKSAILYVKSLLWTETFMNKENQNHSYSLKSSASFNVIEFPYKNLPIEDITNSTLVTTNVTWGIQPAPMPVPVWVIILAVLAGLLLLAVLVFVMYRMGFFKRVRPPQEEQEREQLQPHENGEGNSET
T1 chain 2: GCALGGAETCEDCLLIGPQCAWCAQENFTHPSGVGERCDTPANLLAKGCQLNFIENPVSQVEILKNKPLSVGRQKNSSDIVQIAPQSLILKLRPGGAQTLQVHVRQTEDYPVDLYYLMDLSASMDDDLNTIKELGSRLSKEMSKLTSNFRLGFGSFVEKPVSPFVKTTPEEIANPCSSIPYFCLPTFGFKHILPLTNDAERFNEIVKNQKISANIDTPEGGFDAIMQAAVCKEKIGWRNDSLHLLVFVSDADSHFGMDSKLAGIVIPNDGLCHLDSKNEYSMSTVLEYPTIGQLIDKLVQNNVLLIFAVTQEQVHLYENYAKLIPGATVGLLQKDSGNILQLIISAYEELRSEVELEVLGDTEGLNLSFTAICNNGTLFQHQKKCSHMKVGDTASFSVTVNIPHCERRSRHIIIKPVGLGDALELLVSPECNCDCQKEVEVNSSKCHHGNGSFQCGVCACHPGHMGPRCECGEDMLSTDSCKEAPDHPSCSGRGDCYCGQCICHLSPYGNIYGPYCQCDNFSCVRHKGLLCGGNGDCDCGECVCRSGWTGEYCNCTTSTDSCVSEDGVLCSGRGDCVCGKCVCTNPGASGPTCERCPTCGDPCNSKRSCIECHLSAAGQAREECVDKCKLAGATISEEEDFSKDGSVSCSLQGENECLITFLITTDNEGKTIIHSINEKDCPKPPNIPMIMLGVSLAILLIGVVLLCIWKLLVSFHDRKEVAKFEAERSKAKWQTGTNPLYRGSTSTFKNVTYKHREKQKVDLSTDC

T2: cyno αvβ6 on 293F:cynoβ6 cells (human;Macaca fascicularis, UniProt P06756 31-1048; A0A2K5TZ36 22-787)
T2 chain 1: T1 chain 1
T2 chain 2: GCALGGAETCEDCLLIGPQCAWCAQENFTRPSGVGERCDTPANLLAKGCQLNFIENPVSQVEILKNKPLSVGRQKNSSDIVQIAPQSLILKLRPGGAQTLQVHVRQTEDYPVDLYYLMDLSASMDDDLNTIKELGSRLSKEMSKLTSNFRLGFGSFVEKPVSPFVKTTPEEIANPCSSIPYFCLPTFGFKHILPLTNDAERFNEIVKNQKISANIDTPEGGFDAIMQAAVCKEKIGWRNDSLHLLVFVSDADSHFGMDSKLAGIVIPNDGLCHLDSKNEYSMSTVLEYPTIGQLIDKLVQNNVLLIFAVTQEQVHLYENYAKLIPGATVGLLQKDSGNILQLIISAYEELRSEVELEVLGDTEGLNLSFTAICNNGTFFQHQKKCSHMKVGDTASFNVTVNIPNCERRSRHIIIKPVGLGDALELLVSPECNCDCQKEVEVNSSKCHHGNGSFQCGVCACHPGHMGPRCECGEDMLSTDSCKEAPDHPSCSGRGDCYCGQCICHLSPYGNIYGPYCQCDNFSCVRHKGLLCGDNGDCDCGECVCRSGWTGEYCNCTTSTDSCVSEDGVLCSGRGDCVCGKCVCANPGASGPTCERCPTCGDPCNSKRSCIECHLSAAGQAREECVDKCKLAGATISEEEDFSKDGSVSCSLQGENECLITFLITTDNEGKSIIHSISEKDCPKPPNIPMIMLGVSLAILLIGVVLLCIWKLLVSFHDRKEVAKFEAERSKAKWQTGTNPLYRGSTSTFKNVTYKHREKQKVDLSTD

B1: c2A2 (antibody, V domains shown)
VH: EFQLQQSGPELVKPGASVKISCKASGYSFTDYNVNWVKQSNGKSLEWIGVINPKYGTTRYNQKFKGKATLTVDKPSSTAYMQLNSLTSEDSAVYYCTRGLNAWDYWGQGASVTVSS
VL: DIQMTQSPASLSASVGETVTITCGASENIYGALNWYQRKQGKSPQLLIYGATNLADGMSSRFSGSGSGRQYSFKISSLHPDDVATYYCQNVLTTPYTFGGGTKLEIK
B2: h2A2 HCLB (antibody, V domains shown)
VH: QFQLVQSGAEVKKPGASVKVSCKASGYSFTDYNVNWVRQAPGQGLEWIGVINPKYGTTRYNQKFKGRATLTVDKSTSTAYMELSSLRSEDTAVYYCTRGLNAWDYWGQGTLVTVSS
VL: DIQMTQSPSSLSASVGDRVTITCGASENIYGALNWYQQKPGKAPKLLIYGATNLADGVPSRFSGSGSGRDYTFTISSLQPEDIATYYCQNVLTTPYTFGQGTKLEIKR
B3: h2A2 HALG (antibody, V domains shown)
VH: B2 VH with I48M, A68V, L70M, V72R, K74T, A79V
VL: B2 VL with A55E
B4: h2A2 HCLH (antibody, V domains shown)
VH: B2 VH
VL: B2 VL with Y71F
B5: h2A2 HCLE (antibody, V domains shown)
VH: B2 VH
VL: B2 VL with G24Q
B6: h2A2 HALB (antibody, V domains shown)
VH: B2 VH with I48M, A68V, L70M, V72R, K74T, A79V
VL: B2 VL
B7: h2A2-Mdpr-PEG(12)-gluc-MMAE(8) (antibody, human IgG1, kappa, V domains shown)
VH: B2 VH
VL: B2 VL with A55E
modifications: SGD-5088 drug-linker (Mdpr-PEG(12)-gluc-MMAE) on cysteines of the reduced interchain disulfides, eight copies of drug-linker per antibody
notes: also called ADC prepared with h2A2 HCLG and the SGD-5088 drug-linker; HCLG ADC
B8: h2A2 HALA (antibody, V domains shown)
VH: B2 VH with I48M, A68V, L70M, V72R, K74T, A79V
VL: B2 VL with R69T, Y71F
B9: h2A2 HDLA (antibody, V domains shown)
VH: B2 VH with S75P
VL: B2 VL with R69T, Y71F
B10: h2A2 HBLB (antibody, V domains shown)
VH: B2 VH with I48M, A68V, L70M, V72R, K74T, S75P, A79V
VL: B2 VL
B11: h2A2 HDLB (antibody, V domains shown)
VH: B2 VH with S75P
VL: B2 VL
B12: h2A2 HBLA (antibody, V domains shown)
VH: B2 VH with I48M, A68V, L70M, V72R, K74T, S75P, A79V
VL: B2 VL with R69T, Y71F
B13: h2A2 HCLA (antibody, V domains shown)
VH: B2 VH
VL: B2 VL with R69T, Y71F

Molecular target: T1, human αvβ6 on 293F:huβ6 cells
Experiment: competition binding on 293F cells; 2nM m2A2-AF647 competitor

Binder | EC50
B1 | 3 nM
B2 | 3 nM
B3 | 1 nM
B4 | 30 nM
B5 | 3 nM
B6 | 8 nM

These binders were tested against T3, human αvβ6 on 293F:huβ6 cells (human, UniProt P06756 31-1048; P18564 22-788) (assay: competition binding by flow cytometry on 293F:huβ6 cells).
T3 construct: whole, on cells; also called HEK293F:huβ6
Protocol: 0.1×10⁶ antigen expressing cells were aliquoted in each well of a 96-well v-bottom plate on ice. The cells were incubated for 1 hour with 2 nM AlexaFluor-647 labeled humanized 2A2 HCLG and increasing concentrations (from 4 pM-1 uM) of unlabeled humanized 2A2 HCLG antibody and h2A2-Mdpr-PEG(12)-gluc-MMAE(8) in buffer (Tris-buffered saline, 2% fetal bovine serum, 0.5 mM MnCl₂, 0.02% NaN₃). Cells were pelleted and washed 3 times with TBS/FBS. The cells were pelleted and resuspended in 125 uL of TBS/FBS. Fluorescent signal of binding was detected using a Becton Dickinson Biosciences LSR II (San Jose, CA). Percent of saturated fluorescent signal was used to determine percent labeled humanized 2A2 antibody bound to cells and to subsequently extrapolate the EC50 by fitting the data to a sigmoidal dose-response curve with variable slope using GraphPad Software (LaJolla, CA).

Binder | binding result
B7 | binds

Molecular target: T2, cyno αvβ6 on 293F:cynoβ6 cells
Experiment: competition binding on 293F cells

Binder | EC50
B7 | 4 nM

Molecular target: T1, human αvβ6 on 293F:huβ6 cells
Experiment: competition binding on 293F cells

Binder | EC50
B7 | 4 nM

Molecular target: T1, human αvβ6 on 293F:huβ6 cells
Experiment: competition binding on 293F cells; 2nM m2A2-AF647 competitor
Remark: another data set of the same source

Binder | EC50
B1 | 4 nM
B2 | 3 nM
B8 | 74 nM
B9 | 147 nM
B10 | 9 nM
B6 | 5 nM
B11 | 6 nM
B12 | 85 nM
B13 | 74 nM

Molecular target: T1, human αvβ6 on 293F:huβ6 cells
Experiment: as above
Remark: another data set of the same source

Binder | EC50
B3 | 1 nM
B4 | 46 nM
B5 | 2 nM

From US20250242041A1 (Seagen, published 2025)
